The target of this assay is recombinant full-length RACK1 protein (ITC) (human, UniProt P63244 1-317). The assay is described as follows: ITC; LARP4 peptide (400 μM; 300 μM for 600–625) injected into RACK1 (40 μM; 30 μM) in the cell; iTC200; 298K; 20 mM HEPES, 300 mM NaCl, 10% glycerol, 1 mM DTT pH 7.5; triplicate. As to conditions: both partners purified.

B1: HsLARP4 peptide 615–625 (peptide)
peptide: RKLSYAEVCQK
notes: La-related protein 4 (LARP4), human, residues 615-625 (within CR2); source: synthetic peptide (GenScript)
In the case of B1, the Kd was found to be 3 µM, the dH was -8.1 kcal/mol and the “stoichiometry N” value was found to be 0.9.

B2: HsLARP4 peptide 587–637 (peptide)
peptide: TTKPSRASTASPCNNNINAATAVALQEPRKLSYAEVCQKPPKEPSSVLVQP
notes: La-related protein 4 (LARP4), human, residues 587-637; source: synthetic peptide (GenScript)
For the molecule B2, the Ka was determined as 440000 M⁻¹, the Kd was 2.3 µM, the dH was -7.8 kcal/mol and the “stoichiometry N” value stood at 1.

B3: HsLARP4 peptide 575–625 (peptide)
peptide: LNQTTIPVSPPSTTKPSRASTASPCNNNINAATAVALQEPRKLSYAEVCQK
notes: La-related protein 4 (LARP4), human, residues 575-625; source: synthetic peptide (GenScript)
Consider B3, for which the Ka is 370000 M⁻¹, the Kd is 2.7 µM, the dH was -5.7 kcal/mol and the “stoichiometry N” value is 1.

B4: HsLARP4 peptide 612–625 (peptide)
peptide: QEPRKLSYAEVCQK
notes: La-related protein 4 (LARP4), human, residues 612-625; source: synthetic peptide (GenScript)
Regarding B4, the Kd was determined as 2 µM, the dH is -8.3 kcal/mol and the “stoichiometry N” value was 0.8.

Source of the values: doi:10.1101/2024.11.01.621267 (bioRxiv, 2024).
